Results on 14 proteins are retold here after the PETadex activity labels.

Sequences and labels used below:
B1: unnamed (protein)
chain: MKTNRRRRLGRLALAAAALLLSVAAQAQNGSAPPGPDPDPDPNPPESDNPYPRGPDPTAATLEASSGPFAVSSFRPSSTPGFGGGTIYYPTNTNEGPFAAIAVAPGFVGTESTIDWLGPRLASHGFVVITIDTNSLFDFPDSRASQLMAALDIVIAESNGSSPISGLVDPDRTGLMGHSMGGGGSLIAARDNPTIDAVIPLAPWNSSTNFSAIDVPTLIVACENDTVAPVSQHASPMYESIPSSVDKAFLEINGGDHFCANSGNANQDILGKYIVSWMKRFLDQDTRYDPFLCGPNHEADPDISEYRDTCPY
B2: unnamed (protein)
chain: MHAVTSLGFVRASTAPGGRGWRRLAWALALGCGLGVGTTASYAQATGPNPSSAFLNASAGPLRVATESVSSFVTGFGGGTIYYPSTAGRYGVIAISPGFTATESSVAWLGRRLASHGFVAIVINTNSTLDQPASRATQLMAALRHATTGASSTVRARIDSTRQAVAGHSMGGGGTLIAAEDNPTLKAAIPLTPWNLSTSFNGVRVPTLIVGADGDTVASVAVHARPFYASLPASTFKAYAELNGASHFAPNTTNTPIGRYSVAWAKRFIDGDTRYSPFLCGAEHRAYATAAVFDRYNQNCPY
B3: unnamed (protein)
chain: MSLVSHRAATTRACSKPQTEISRSPRNRRGAFIACVSLALVSSFAHADVLLQENFDGTLGQFTSVGSVSVTTSGARMAGSFGGTDGAITSAAISTVGFTALSLSYTRTTTGLDSGEAGILEYSTNGTTYTSLGSTQSASGPVTVGLPAAAENQAGLRLRWRVNASSSSEYYTVDSIQLQGTGGTSCEPNCPPTGNPYQRGPAPTTSTLDATSGSFTVDSVTVSSTAANGYGGGTIYYPVNTTEGPFAAIAVIPGYLSPQSSIQQWGPRLASWGFVVITITTNSGSDQPSSRATQLVAALDQVVSYSNSTTHAIRGKVDPTRLGVAGWSMGGGGSLIALDRNPTKLKAGMMFAPWNSSTNFSGVNQPALIFACESDGTAPVSSHALPFYNSIPSSNDKAFAEVNNGSHSCANDPRNNSGRLGRYGVSWMKRFLDDDTRFTEFLCGAPHSSVISGTTTYSRYLSTCPY
B4: unnamed (protein)
chain: MFNIRKVAVAASVLLVSMAASAQYQKGPNPTASALERTGSFSTGSSSVSSLSASGFGGGNLYYPTASGTYGAIALCPGFTATSSSLAWLGPRLASHGFVVLIIDTNSTLDQPDSRGRQLKAATDYLVAQNSRTGSPIRGKVDTSRLAVGGHSMGGGGTLEAIRDNPSYKAGMPLAPWNTTKSFSRITVPTLIIGGSADTVAPDGSHSIPFYTSIPSSTAKIFMELRGGSHFFPQTSDPNVSRFAISWYKRWLDLDTRYSTFLNTRPSTTAVSDFRVSRTF
B5: unnamed (protein)
chain: MDKTRLFSTLSMVTSALLFSISVSAGKPSKGGDEPAPEPAACISDTDITSAALSSTGSSGPFTVSTKDVSRWSASGFGGGTIHYPTGAGDCGPIGGIAVVPGYVSYEASIKWWGPRLASWGFVVITINTNSIYDQPDSRATQLSAALDHIINDSTVGSMVDSSRLGAIGWSMGGGGALKLATDRSEVKAIIPQAPWYSGRYGRMKTPAFMIGCENDFVAPTSNHVDVFYANASGPKMKIEVNNGDHSCANSGYNETLLGKPGIAWMQRYIHGDTRFNQFLCGNENYGSSNSVSAYDFESCP
B6: unnamed (protein)
chain: MRTSRTRPLRRLAAALVLALAVVLAACDIRGPDPTEQSLTASSGPFAVGTLAVPSSAGFGGGTIYYPTNTEGPFAVISVTPGFTGTQSSIAGWGPRLASHGFVAITINTTNTFENPDTRSTEQRQALTYVVNQSNTSSSPIYGKVDGNRRGVAGHSMGGGGTLISAQADPTIRAAVPLAPWNSSTNFSNVTVPTLILACQNDSIAPVASHASPMYNSIPATTDKSYLSIAGGDHFCANSPTGGSGNVGKYGVAFFKRFLDGDTRYDPWVCGASKPAAGSAINEVRSTCPF
B7: unnamed (protein)
chain: MKKSILEKIAVGTGALLFSVSAFSFTPSPTPDPDPDPDPTPCQGECDFTRGPNPTSSYLEASRGPYTVRNVSVSRSVSGFGGGTIHYPTNTTGTMGAIAIVPGFLAGESSISWWGPRLASHGFVVITIATNSTFDQPASRETQLGRALDYLVSQSNSSSSPISGKVDSARLGAMGWSMGGGGTLRLASGSRLVAAIPLAPWHSGSNNFNRIQTPTMIIACENDTTAAVRSHASPFYNSIPSSTDKAFLEINNGSHSCANGGGSNGGLLGKYGVSWMKRFMDQDTRYNQFLCGPNHAANSAISEYRETCNY
B8: unnamed (protein)
chain: MKTIARWQRRCAVGLGLLLLAAAAQSQTNPFQKGPDPTSTILNATAGPFAVATASVPSSVAGFGGGTVYYPTTAGSYAALALCPGFTATQSSIAWIGRRLATHGFVVITINTNSTFDQPPSRATQLMAALRYLTNSSSTTVRSRIDANRLGVGGHSMGGGGTLMATRDNPSLKVGIPMTPWSSTKSFSTVRVPTIIFGGENDTVAPVSSHSIPFYTSLPSSLDKAYAELNGASHFAPNSTNTPIGRYAVSWAKRFMDNDTRYDTFLCGSAHTAFATPAVFSDYRSTCPY
B9: unnamed (protein)
chain: MPMYKLNHVFFAVALAACSALGCAEGSDGSTVSTGGDGVGGGAGETDLPAGAGGTAGVGGAAGSVDPSDIAGTGGSAGTAGETVAGSSGVPVAGTGGIPVAGSGGTGIVDSGGIGGGGAGGTLENNNFIRGPAPTAQSASQAGPYDVQSTTQGLRDPAEYGTQTLWYPTDAEPPFAAIAIVPGFVSPEGSIANWGPFLASHGIVVLTIGTNTGGDLPEVRSAALLAALDTIKAEHTRQGSPIEGKIDTGKLAVGGWSMGGGGTLLTITAHPELKAGLGICPWYMNAFAFAGNTVPVIMFAGTMDVLAGGMSQGFYDAIPASTPKMLFEIAGADHFYANDPLNVANPFTVQVGLYGLSWLKVFLEGDDRYRQFLLNPPQNASDFRTTVK
B10: unnamed (protein)
chain: MRKIASALEIAALVLASFAAGCGDDGSSNDNPMGMTTQTANTGTPDTGVSTMVPPASTDAGTSTNVGNTNTGTLDAGMVGSTTGIKPAVDSGAVDTGVALGDASSDSGSVAVGDGGGVISPVTPIMRGDAPTKASATAKGPYKVMSYTSGFPVTLYGGGTIWYPTDAEAPFGAVAICPGFTAAQSSIMNWGPFLASHGIVALTMDTATPLDVVDQRADELMDALASIKSENDRAASPIYKKIDTMRLGVMGWSMGGGGTWLAADMHPELRSAVTFAGHIVTAVNQDVSMVHVPTLMFAGSADNAILGGGMSQGVYDGIPESTPKMVWEIMGAGHDVANDPANTSGAVGRYGLSWEKVYLEGDMRYRQFLLEMPPTASYFKTNVK
B11: unnamed (protein)
chain: MQRQTCTTPVGPFHPQETSPMTLTSTLQRFAGIRPFALALPLAAIGWVAQAQTNPPTSSLLNATAGPLTVSTSSVSSFAARGFGGGTIYYPDATGSYGVVAISPGYTARQSSIAWLGRRLATHGFVVITIDTNSTLDQPPSRATQLMAALGHVVNNANATVRSRVDASKQAVAGHSMGGGGSLIAAQNNPTLKAAYPLTPWSVSKNYGTVRVPTMIIGADGDTIAAVTTHSRAFYNSLSSTVFKAYGELNNASHFTPNSTNTPIGRYAVSWMKRFVDSDTRYSPFLCGAPHDSYATRTVFDRYERNCPY
B12: unnamed (protein)
chain: MKLERSVAQATSVARGARRHEKPSSLTSVALAGVSLALFSTFAHADVLLQENFDGNLGQFSSSGSVTVTTSGARMAGSYGGTDGAITSPAISTVGFTGLSLSYTRTTTGLDSGEGGFLEYSTNGTTFTSLGSTQSASGPVTVALPAAVENQAALRLRWRVNASLSSEYYTVDTILLEGTGGTSCEPNCPPTGNPYQRGPAPTVSSLQATTGPFQTASSAVSSSAADGYGGGTIYYPTNTTEGPFAAIAVVPGYLSPQSSIQQWGPRLASWGFVVITIATNSTSDQPSSRATQLVAALDQVVSYSNSTSHAIRGKVDPARLGVAGWSMGGGGTLIALDRNATKLKAGMAFAPWNSSTNFSGVNQPALIFGCESDGTAPVSSHSLPFYNSMPSTNDKAFAEVNNGGHSCANDPRNNSGMIGRYGVSWMKRFLDNDTRFSDFLCGAPHDTAVSGSTFSRYLETCPY
B13: unnamed (protein)
chain: MRPTRCPSRATSPLRSRSRVLAVLIVMATTLASTLLTVSVTPAATAARQSQSRSVAGSSSEHASVRATIPDPTTASLEATNGPLAIATYTVPQPSGYGSGTITYPTARGSYPAVVLMPGYQGTQQNLQWVAPRLASWGFIVINVGTKTLGDDPASRGRQISAAGTQLLSLGSVAGNPLYGKMNGTLGAAGHSMGGGGVMAALREDSRFTAGMPLAPYYPNQNFSGVTDPTFFLTCKSDPVAHGNTYALPWYNSMSQAEKLYIEVPGDHLCPMTGYGNKAKQGKWIVSFFSRWLYGDTRFSPFLCGAAREADKNNPSLVTRWQDTCPF
B14: unnamed (protein)
chain: MTSTTVRFAKRLIGAAALLATASVFAQSLPSDAALQATSGPLKIAQANIATPNGYGSGTVYYPTTGTNMGLVVIAPGFTEGPSFNAFWGEKLASWGFVAVNIGTKTTLDLPGPRATQMWAALQQVAALSKTSGSPFAGKVDANRLAAMGHSMGGGGTLLISQDHPTLKAAIPMAPWNLTQKNFPKITVPQLMFACQNDIIAPVSGHADRFWTSFNTTLPRVFAESKGQDHFCPTNLTSAAEKAAFGRIAIAWYKIYLDGDTQYKQVITNGNSPVFSRYLTGGL

Substrate in the data set: BHET
The following applies: 120 h.
As for B1, the plate clearing result is “not clears the plate”.

For the protein B2, the plate clearing entry is “not clears the plate”.

For the protein B3, the plate clearing result is reported as “clears the plate (z > 3 vs empty vector)”.

In the case of B4, the plate clearing result is “not clears the plate”.

B5: the plate clearing entry is on record as “not clears the plate”.

Consider B6, for which the plate clearing result is on record as “not clears the plate”.

Turning to B7, the plate clearing entry is recorded as “not clears the plate”.

For B8, the plate clearing result is reported as “not clears the plate”.

B9: the plate clearing entry is given as “not clears the plate”.

Consider B10, for which the plate clearing result is “not clears the plate”.

Turning to B11, the plate clearing entry was “not clears the plate”.

In the case of B12, the plate clearing result is on record as “clears the plate (z > 3 vs empty vector)”.

For the protein B13, the plate clearing entry is recorded as “not clears the plate”.

Regarding B14, the plate clearing entry is “not clears the plate”.
